Source: patent publication US20220064329A1 (Novo Nordisk, published 2022)

T1: recombinant human activated Factor VII (FVIIa) (human, UniProt P08709 61-212; P08709 213-466, ten glutamate residues of the Gla domain may be gamma-carboxylated)
T1 construct: chains tethered by a disulfide bond; also called Factor VIIa; rFVIIa
T1 sequence 1: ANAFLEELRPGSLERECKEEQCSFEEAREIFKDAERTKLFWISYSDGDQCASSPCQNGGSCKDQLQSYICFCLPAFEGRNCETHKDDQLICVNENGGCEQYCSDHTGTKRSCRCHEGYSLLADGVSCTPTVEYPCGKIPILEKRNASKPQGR
T1 sequence 2: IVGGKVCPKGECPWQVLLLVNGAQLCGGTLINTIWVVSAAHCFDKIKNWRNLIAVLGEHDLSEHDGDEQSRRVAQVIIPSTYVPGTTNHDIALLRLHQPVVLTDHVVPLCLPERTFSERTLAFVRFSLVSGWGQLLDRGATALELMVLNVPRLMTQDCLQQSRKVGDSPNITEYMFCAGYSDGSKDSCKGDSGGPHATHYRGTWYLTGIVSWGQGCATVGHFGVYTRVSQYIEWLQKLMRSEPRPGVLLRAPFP


Target: T1, recombinant human activated Factor VII …
Test: BLI (Fortebio)
Procedure: All steps were performed in running buffer (20 mM HEPES buffer (pH 7.4), 150 mM NaCl, 5 mM CaCl2, 0.03% Tween 20, 1 mg/ml IgG-free BSA) at […] Antibodies were captured on anti-human tips (AHC, Fortebio) for 3 min at a concentration of 10 ug/ml. This was followed by a 3 min incubation to establish a baseline. Following this, association was monitored for 3 min using four different concentrations of VIIa (25 nm, 50 nM, 100 nM, and 200 nM), followed by a 3 mi dissociation. Sensorgrams were analysed using Fortebio data analysis software.

Binder | Kd
VH SEQ ID NO 626 / VL SEQ ID NO 470 (antibody, IgG4, V domains shown, humanized 11F2; IgG4 S228P/kappa) VH: QVQLQESGPGLVKPSQTLSLTCTVSGYSISSDSAWSWIRQPPGKGLEWIGYIQYSGSTNYNPSLKSRVTISRDTSKNQFSLKLSSVTAADTAVYYCARSVNYYGNSFAVGPWGQGTLVTVSS VL: EIVLTQSPATLSLSPGERATLSCRASQGVSDYLHWYQQKPGQAPRLLIKYASQPATGIPARFSGSGSGTDFTLTISSLEPEDFAVYYCQNGHSFPLTFGQGTKLEIK | 1.1 nM
VH SEQ ID NO 314 / VL SEQ ID NO 318 (antibody, IgG4, V domains shown, humanized 11F2; IgG4 S228P/kappa) VH: QVQLQESGPGLVEPSDTLSLTCAVSGYSISSDSAWSWIRQPPGKGLEWIGYIQYSGSTNYNPSLKSRVTMSVDTSKNQFSLKLSSVTALDTAVYYCARSVNYYGNSFAVGPWGQGTLVTVSS VL: EIVLTQSPATLSLSPGERATLSCRASQGISDYLHWYQQKPGEAPRLLIKYTSQPATGIPARFSGSGSGTDFTLTISSLEPEDFAVYYCQNGHSFPLTFGQGTKLEIK | 17 nM
VH SEQ ID NO 314 / VL SEQ ID NO 326 (antibody, IgG4, V domains shown, humanized 11F2; IgG4 S228P/kappa) VH: QVQLQESGPGLVEPSDTLSLTCAVSGYSISSDSAWSWIRQPPGKGLEWIGYIQYSGSTNYNPSLKSRVTMSVDTSKNQFSLKLSSVTALDTAVYYCARSVNYYGNSFAVGPWGQGTLVTVSS VL: EIVLTQSPATLSLSPGERATLSCRASQGISDYLHWYQQKPGEAPRLLIKYTSQPATGIPARFSGSGSGTDFTLTISSLEPEDFGVYYCQNGHSFPLTFGAGTKLELK | 15 nM
VH SEQ ID NO 314 / VL SEQ ID NO 334 (antibody, IgG4, V domains shown, humanized 11F2; IgG4 S228P/kappa) VH: QVQLQESGPGLVEPSDTLSLTCAVSGYSISSDSAWSWIRQPPGKGLEWIGYIQYSGSTNYNPSLKSRVTMSVDTSKNQFSLKLSSVTALDTAVYYCARSVNYYGNSFAVGPWGQGTLVTVSS VL: EIVLTQSPATLSLSPGERATLSCRASQGISDYLHWYQQKPGQAPRLLIKYASQPATGIPARFSGSGSGTDFTLTISSLEPEDFAVYYCQNGHSFPLTFGQGTKLEIK | 21 nM
VH SEQ ID NO 314 / VL SEQ ID NO 342 (antibody, IgG4, V domains shown, humanized 11F2; IgG4 S228P/kappa) VH: QVQLQESGPGLVEPSDTLSLTCAVSGYSISSDSAWSWIRQPPGKGLEWIGYIQYSGSTNYNPSLKSRVTMSVDTSKNQFSLKLSSVTALDTAVYYCARSVNYYGNSFAVGPWGQGTLVTVSS VL: EIVLTQSPATLSLSPGERATLSCRASQGISDYLHWYQQKPGQAPRLLIKYTSQPATGIPARFSGSGSGRDFTLTISSLEPEDFAVYYCQNGHSFPLTFGAGTKLELK | 28 nM
VH SEQ ID NO 314 / VL SEQ ID NO 350 (antibody, IgG4, V domains shown, humanized 11F2; IgG4 S228P/kappa) VH: QVQLQESGPGLVEPSDTLSLTCAVSGYSISSDSAWSWIRQPPGKGLEWIGYIQYSGSTNYNPSLKSRVTMSVDTSKNQFSLKLSSVTALDTAVYYCARSVNYYGNSFAVGPWGQGTLVTVSS VL: EIVLTQSPATLSLSPGERATLSCRASQGISDYLHWYQQKPGQAPRLLIKYTSQPATGIPARFSGSGSGTDFTLTISSLEPEDFAVYYCQNGHSFPLTFGAGTKLELK | 19 nM
VH SEQ ID NO 314 / VL SEQ ID NO 358 (antibody, IgG4, V domains shown, humanized 11F2; IgG4 S228P/kappa) VH: QVQLQESGPGLVEPSDTLSLTCAVSGYSISSDSAWSWIRQPPGKGLEWIGYIQYSGSTNYNPSLKSRVTMSVDTSKNQFSLKLSSVTALDTAVYYCARSVNYYGNSFAVGPWGQGTLVTVSS VL: EIVLTQSPATLSLSPGERATLSCRASQGISDYLHWYQQKPGQAPRLLIKYTSQPATGIPARFSGSGSGTDFTLTISSLEPEDFAVYYCQNGHSFPLTFGQGTKLEIK | 18 nM
VH SEQ ID NO 314 / VL SEQ ID NO 382 (antibody, IgG4, V domains shown, humanized 11F2; IgG4 S228P/kappa) VH: QVQLQESGPGLVEPSDTLSLTCAVSGYSISSDSAWSWIRQPPGKGLEWIGYIQYSGSTNYNPSLKSRVTMSVDTSKNQFSLKLSSVTALDTAVYYCARSVNYYGNSFAVGPWGQGTLVTVSS VL: EIVLTQSPATLSLSPGERATLSCRASQGLSDYLHWYQQKPGEAPRLLIKYASQPATGIPARFSGSGSGTDFTLTISSLEPEDFAVYYCQNGHSFPLTFGQGTKLEIK | 27 nM
VH SEQ ID NO 314 / VL SEQ ID NO 454 (antibody, IgG4, V domains shown, humanized 11F2; IgG4 S228P/kappa) VH: QVQLQESGPGLVEPSDTLSLTCAVSGYSISSDSAWSWIRQPPGKGLEWIGYIQYSGSTNYNPSLKSRVTMSVDTSKNQFSLKLSSVTALDTAVYYCARSVNYYGNSFAVGPWGQGTLVTVSS VL: EIVLTQSPATLSLSPGERATLSCRASQGVSDYLHWYQQKPGEAPRLLIKYASQPATGIPARFSGSGSGTDFTLTISSLEPEDFAVYYCQNGHSFPLTFGQGTKLEIK | 32 nM
VH SEQ ID NO 314 / VL SEQ ID NO 462 (antibody, IgG4, V domains shown, humanized 11F2; IgG4 S228P/kappa) VH: QVQLQESGPGLVEPSDTLSLTCAVSGYSISSDSAWSWIRQPPGKGLEWIGYIQYSGSTNYNPSLKSRVTMSVDTSKNQFSLKLSSVTALDTAVYYCARSVNYYGNSFAVGPWGQGTLVTVSS VL: EIVLTQSPATLSLSPGERATLSCRASQGVSDYLHWYQQKPGQAPRLLIKYASQPATGIPARFSGSGSGTDFTLTISSLEPEDFAVYYCQNGHSFPLTFGAGTKLEIK | 26 nM
VH SEQ ID NO 314 / VL SEQ ID NO 470 (antibody, IgG4, V domains shown, humanized 11F2; IgG4 S228P/kappa) VH: QVQLQESGPGLVEPSDTLSLTCAVSGYSISSDSAWSWIRQPPGKGLEWIGYIQYSGSTNYNPSLKSRVTMSVDTSKNQFSLKLSSVTALDTAVYYCARSVNYYGNSFAVGPWGQGTLVTVSS VL: EIVLTQSPATLSLSPGERATLSCRASQGVSDYLHWYQQKPGQAPRLLIKYASQPATGIPARFSGSGSGTDFTLTISSLEPEDFAVYYCQNGHSFPLTFGQGTKLEIK | 20 nM
VH SEQ ID NO 314 / VL SEQ ID NO 478 (antibody, IgG4, V domains shown, humanized 11F2; IgG4 S228P/kappa) VH: QVQLQESGPGLVEPSDTLSLTCAVSGYSISSDSAWSWIRQPPGKGLEWIGYIQYSGSTNYNPSLKSRVTMSVDTSKNQFSLKLSSVTALDTAVYYCARSVNYYGNSFAVGPWGQGTLVTVSS VL: EIVLTQSPATLSLSPGERATLSCRASQGVSDYLHWYQQKPGQAPRLLIKYASQPATGIPARFSGSGSGTDFTLTISSLEPEDFAVYYCQQGHSFPLTFGQGTKLEIK | 64 nM
VH SEQ ID NO 314 / VL SEQ ID NO 486 (antibody, IgG4, V domains shown, humanized 11F2; IgG4 S228P/kappa) VH: QVQLQESGPGLVEPSDTLSLTCAVSGYSISSDSAWSWIRQPPGKGLEWIGYIQYSGSTNYNPSLKSRVTMSVDTSKNQFSLKLSSVTALDTAVYYCARSVNYYGNSFAVGPWGQGTLVTVSS VL: EIVLTQSPATLSLSPGERATLSCRASQGVSDYLHWYQQKPGQAPRLLIKYASQPATGIPARFSGSGSGTDFTLTISSLEPEDFGVYYCQNGHSFPLTFGQGTKLEIK | 22 nM
VH SEQ ID NO 314 / VL SEQ ID NO 494 (antibody, IgG4, V domains shown, humanized 11F2; IgG4 S228P/kappa) VH: QVQLQESGPGLVEPSDTLSLTCAVSGYSISSDSAWSWIRQPPGKGLEWIGYIQYSGSTNYNPSLKSRVTMSVDTSKNQFSLKLSSVTALDTAVYYCARSVNYYGNSFAVGPWGQGTLVTVSS VL: EIVLTQSPATLSLSPGERATLSCRASQGVSDYLHWYQQKPGQAPRLLIKYASQPATGIPARFSGSGSGTDFTLTISSLEPEDVAVYYCQNGHSFPLTFGQGTKLEIK | 28 nM
VH SEQ ID NO 314 / VL SEQ ID NO 502 (antibody, IgG4, V domains shown, humanized 11F2; IgG4 S228P/kappa) VH: QVQLQESGPGLVEPSDTLSLTCAVSGYSISSDSAWSWIRQPPGKGLEWIGYIQYSGSTNYNPSLKSRVTMSVDTSKNQFSLKLSSVTALDTAVYYCARSVNYYGNSFAVGPWGQGTLVTVSS VL: EIVLTQSPATLSLSPGERATLSCRASQGVSDYLHWYQQKPGQAPRLLIKYTSQPATGIPARFSGSGSGTDFTLTISSLEPEDFAVYYCQNGHSFPLTFGQGTKLEIK | 25 nM
VH SEQ ID NO 514 / VL SEQ ID NO 310 (antibody, IgG4, V domains shown, humanized 11F2; IgG4 S228P/kappa) VH: QVQLQESGPGLVEPSDTLSLTCAVSGYSITSDSAWSWIRQPPGKKLEWIGYIQYSGSTNYNPSLKSRVTMSRDTSKNQFSLKLSSVTALDTAVYYCARSVNYYGNSFAVGYWGQGTLVTVSS VL: EIVLTQSPATLSLSPGERATLSCRASQGISDYLAWYQQKPGQAPRLLIKYASQPATGIPARFSGSGSGTDFTLTISSLEPEDFAVYYCQNGHSFPLTFGQGTKLEIK | 3.1 nM
